{"source": "ChEMBL document CHEMBL2074302", "about": "“ATP-dependent transport for glucuronides in canalicular plasma membrane vesicles” (Biochem Biophys Res Commun, 1991)", "substrate": "O=C(O)[C@H]1O[C@@H](Oc2ccc([N+](=O)[O-])cc2)[C@H](O)[C@@H](O)[C@@H]1O", "test": "TP_TRANSPORTER: uptake in bile canalicular membrane vesicles from Wistar rat", "format": "functional, cell membranes, Bile canalicular membrane vesicle"}
{"protein": "ATP-binding cassette sub-family C member 2 (Rattus norvegicus) (protein) MDKFCNSTFWDLSLLESPEADLPLCFEQTVLVWIPLGFLWLLAPWQLYSVYRSRTKRSSITKFYLAKQVFVVFLLILAAIDLSLALTEDTGQATVPPVRYTNPILYLCTWLLVLAVQHSRQWCVRKNSWFLSLFWILSVLCGVFQFQTLIRALLKDSKSNMAYSYLFFVSYGFQIVLLILTAFSGPSDSTQTPSVTASFLSSITFSWYDRTVLKGYKHPLTLEDVWDIDEGFKTRSVTSKFEAAMTKDLQKARQAFQRRLQKSQRKPEATLHGLNKKQSQSQDVLVLEEAKKKSEKTTKDYPKSWLIKSLFKTFHVVILKSFILKLIHDLLVFLNPQLLKLLIGFVKSSNSYVWFGYICAILMFAVTLIQSFCLQSYFQHCFVLGMCVRTTVMSSIYKKALTLSNLARKQYTIGETVNLMSVDSQKLMDATNYMQLVWSSVIQITLSIFFLWRELGPSILAGVGVMVLLIPVNGVLATKIRNIQVQNMKNKDKRLKIMNEILSGIKILKYFAWEPSFQEQVQGIRKKELKNLLRFGQLQSLLIFILQITPILVSVVTFSVYVLVDSANVLNAEKAFTSITLFNILRFPLSMLPMVTSSILQASVSVDRLERYLGGDDLDTSAIRRVSNFDKAVKFSEASFTWDPDLEATIQDVNLDIKPGQLVAVVGTVGSGKSSLVSAMLGEMENVHGHITIQGSTAYVPQQSWIQNGTIKDNILFGSEYNEKKYQQVLKACALLPDLEILPGGDMAEIGEKGINLSGGQKQRVSLARAAYQDADIYILDDPLSAVDAHVGKHIFNKVVGPNGLLAGKTRIFVTHGIHFLPQVDEIVVLGKGTILEKGSYRDLLDKKGVFARNWKTFMKHSGPEGEATVNNDSEAEDDDDGLIPTMEEIPEDAASLAMRRENSLRRTLSRSSRSSSRRGKSLKNSLKIKNVNVLKEKEKEVEGQKLIKKEFVETGKVKFSIYLKYLQAVGWWSILFIILFYGLNNVAFIGSNLWLSAWTSDSDNLNGTNNSSSHRDMRIGVFGALGLAQGICLLISTLWSIYACRNASKALHGQLLTNILRAPMRFFDTTPTGRIVNRFSGDISTVDDLLPQTLRSWMMCFFGIAGTLVMICMATPVFAIIIIPLSILYISVQVFYVATSRQLRRLDSVTKSPIYSHFSETVTGLPIIRAFEHQQRFLAWNEKQIDINQKCVFSWITSNRWLAIRLELVGNLVVFCSALLLVIYRKTLTGDVVGFVLSNALNITQTLNWLVRMTSEAETNIVAVERISEYINVENEAPWVTDKRPPADWPRHGEIQFNNYQVRYRPELDLVLKGITCNIKSGEKVGVVGRTGAGKSSLTNCLFRILESAGGQIIIDGIDVASIGLHDLRERLTIIPQDPILFSGSLRMNLDPFNKYSDEEVWRALELAHLRSFVSGLQLGLLSEVTEGGDNLSIGQRQLLCLGRAVLRKSKILVLDEATAAVDLETDSLIQTTIRKEFSQCTVITIAHRLHTIMDSDKIMVLDNGKIVEYGSPEELLSNRGSFYLMAKEAGIENVNHTEL", "values": [{"measurement": "Km", "result": 20, "unit": "µM"}]}
